B1: CDC25A (parent)
chain: TVAGKHQDLKYISPEIMASVLNGK

Variants of: B1
Test: protein stability index of a GFP-peptide fusion (GPS, HEK-293T) (PSI 1-6); higher = more stable
Conditions: c terminus: a fixed tail appended
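Note: lentivirally expressed fusions sorted by FACS into six bins by GFP to DsRed ratio, PSI derived from sequencing read proportions per bin multiplied by bin number.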

Variant	protein stability index
TVAGKEQDLKYISPEIMASVLNGK [H6E]	3.66
TVAGKQQDLKYISPEIMASVLNGK [H6Q]	3.43
TVAGKLQDLKYISPEIMASVLNGK [H6L]	2.13
TVAGKFQDLKYISPEIMASVLNGK [H6F]	2.75
TVAGKWQDLKYISPEIMASVLNGK [H6W]	2.24
TVAGKSQDLKYISPEIMASVLNGK [H6S]	2.94
TVAGKCQDLKYISPEIMASVLNGK [H6C]	2.57
TVAGKAQDLKYISPEIMASVLNGK [H6A]	3.73
TVAGKPQDLKYISPEIMASVLNGK [H6P]	3.38
TVAGKRQDLKYISPEIMASVLNGK [H6R]	2.81
TVAGKVQDLKYISPEIMASVLNGK [H6V]	2.45
TVAGKMQDLKYISPEIMASVLNGK [H6M]	2.26
TVAGKKQDLKYISPEIMASVLNGK [H6K]	3.27
TVAGKYQDLKYISPEIMASVLNGK [H6Y]	3.25
TVAGKIQDLKYISPEIMASVLNGK [H6I]	2.63
TVAGKTQDLKYISPEIMASVLNGK [H6T]	3.24
TVAGKNQDLKYISPEIMASVLNGK [H6N]	2.96
TVAGKGQDLKYISPEIMASVLNGK [H6G]	3.06
TVAGKDQDLKYISPEIMASVLNGK [H6D]	3.92
THAGKHQDLKYISPEIMASVLNGK [V2H]	3.33
TIAGKHQDLKYISPEIMASVLNGK [V2I]	2.91
TWAGKHQDLKYISPEIMASVLNGK [V2W]	2.55
TRAGKHQDLKYISPEIMASVLNGK [V2R]	3.21
TEAGKHQDLKYISPEIMASVLNGK [V2E]	3.68

Variant	protein stability index
TNAGKHQDLKYISPEIMASVLNGK [V2N]	3.11
TAAGKHQDLKYISPEIMASVLNGK [V2A]	3.28
TFAGKHQDLKYISPEIMASVLNGK [V2F]	2.94
TCAGKHQDLKYISPEIMASVLNGK [V2C]	3.32
TMAGKHQDLKYISPEIMASVLNGK [V2M]	3.11
TQAGKHQDLKYISPEIMASVLNGK [V2Q]	3.35
TKAGKHQDLKYISPEIMASVLNGK [V2K]	2.92
TYAGKHQDLKYISPEIMASVLNGK [V2Y]	2.79
TGAGKHQDLKYISPEIMASVLNGK [V2G]	3.33
TLAGKHQDLKYISPEIMASVLNGK [V2L]	2.96
TPAGKHQDLKYISPEIMASVLNGK [V2P]	3.51
TTAGKHQDLKYISPEIMASVLNGK [V2T]	3.41
TSAGKHQDLKYISPEIMASVLNGK [V2S]	3.28
TDAGKHQDLKYISPEIMASVLNGK [V2D]	3.89
TVAGKHTDLKYISPEIMASVLNGK [Q7T]	2.69
TVAGKHHDLKYISPEIMASVLNGK [Q7H]	3.27
TVAGKHRDLKYISPEIMASVLNGK [Q7R]	2.64
TVAGKHLDLKYISPEIMASVLNGK [Q7L]	2.62
TVAGKHMDLKYISPEIMASVLNGK [Q7M]	2.7
TVAGKHPDLKYISPEIMASVLNGK [Q7P]	3.24
TVAGKHGDLKYISPEIMASVLNGK [Q7G]	3.08
TVAGKHIDLKYISPEIMASVLNGK [Q7I]	2.37
TVAGKHFDLKYISPEIMASVLNGK [Q7F]	2.3
TVAGKHWDLKYISPEIMASVLNGK [Q7W]	2.36

Variant	protein stability index
TVAGKHKDLKYISPEIMASVLNGK [Q7K]	2.6
TVAGKHSDLKYISPEIMASVLNGK [Q7S]	3.16
TVAGKHVDLKYISPEIMASVLNGK [Q7V]	3.17
TVAGKHCDLKYISPEIMASVLNGK [Q7C]	2.79
TVAGKHADLKYISPEIMASVLNGK [Q7A]	2.85
TVAGKHDDLKYISPEIMASVLNGK [Q7D]	3.06
TVAGKHYDLKYISPEIMASVLNGK [Q7Y]	2.49
TVAGKHEDLKYISPEIMASVLNGK [Q7E]	3.52
TVAGKHNDLKYISPEIMASVLNGK [Q7N]	2.46
TVAGKHQDLGYISPEIMASVLNGK [K10G]	3.44
TVAGKHQDLEYISPEIMASVLNGK [K10E]	3.42
TVAGKHQDLRYISPEIMASVLNGK [K10R]	2.8
TVAGKHQDLHYISPEIMASVLNGK [K10H]	2.88
TVAGKHQDLLYISPEIMASVLNGK [K10L]	1.9
TVAGKHQDLIYISPEIMASVLNGK [K10I]	1.69
TVAGKHQDLQYISPEIMASVLNGK [K10Q]	2.85
TVAGKHQDLCYISPEIMASVLNGK [K10C]	2.52
TVAGKHQDLFYISPEIMASVLNGK [K10F]	1.78
TVAGKHQDLNYISPEIMASVLNGK [K10N]	3.34
TVAGKHQDLDYISPEIMASVLNGK [K10D]	3.85
TVAGKHQDLMYISPEIMASVLNGK [K10M]	2.69
TVAGKHQDLAYISPEIMASVLNGK [K10A]	2.99
TVAGKHQDLPYISPEIMASVLNGK [K10P]	3.21
TVTGKHQDLKYISPEIMASVLNGK [A3T]	3.31

Variant	protein stability index
TVPGKHQDLKYISPEIMASVLNGK [A3P]	3.52
TVNGKHQDLKYISPEIMASVLNGK [A3N]	2.79
TVWGKHQDLKYISPEIMASVLNGK [A3W]	2.16
TVVGKHQDLKYISPEIMASVLNGK [A3V]	3.38
TVEGKHQDLKYISPEIMASVLNGK [A3E]	3.39
TVFGKHQDLKYISPEIMASVLNGK [A3F]	2.56
TVRGKHQDLKYISPEIMASVLNGK [A3R]	2.85
TVSGKHQDLKYISPEIMASVLNGK [A3S]	2.93
TVGGKHQDLKYISPEIMASVLNGK [A3G]	3.14
TVDGKHQDLKYISPEIMASVLNGK [A3D]	3.74
TVYGKHQDLKYISPEIMASVLNGK [A3Y]	2.79
TVCGKHQDLKYISPEIMASVLNGK [A3C]	2.47
TVMGKHQDLKYISPEIMASVLNGK [A3M]	2.82
TVIGKHQDLKYISPEIMASVLNGK [A3I]	2.61
TVHGKHQDLKYISPEIMASVLNGK [A3H]	2.85
TVKGKHQDLKYISPEIMASVLNGK [A3K]	3.41
TVLGKHQDLKYISPEIMASVLNGK [A3L]	2.69
TVQGKHQDLKYISPEIMASVLNGK [A3Q]	2.7
TVAGKHQDCKYISPEIMASVLNGK [L9C]	3.13
TVAGKHQDMKYISPEIMASVLNGK [L9M]	3.29
TVAGKHQDYKYISPEIMASVLNGK [L9Y]	3.08
TVAGKHQDDKYISPEIMASVLNGK [L9D]	4.09
